Results on 1 molecule are retold here after US20140274782A1 (Stanford University, published 2014).

Holding throughout (experiment): ProtoArray, GST-treated control array;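 also: human protein microarray (about 9500 recombinant proteins) incubated overnight with GST alone plus SAM cofactor as the negative control for G9a SET domain methylation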
The target in test [1] is T1, SMYD5-SMYD family member 5 (SMYD5) (human, UniProt Q6GMV2 1-418).
T1 sequence (looked up): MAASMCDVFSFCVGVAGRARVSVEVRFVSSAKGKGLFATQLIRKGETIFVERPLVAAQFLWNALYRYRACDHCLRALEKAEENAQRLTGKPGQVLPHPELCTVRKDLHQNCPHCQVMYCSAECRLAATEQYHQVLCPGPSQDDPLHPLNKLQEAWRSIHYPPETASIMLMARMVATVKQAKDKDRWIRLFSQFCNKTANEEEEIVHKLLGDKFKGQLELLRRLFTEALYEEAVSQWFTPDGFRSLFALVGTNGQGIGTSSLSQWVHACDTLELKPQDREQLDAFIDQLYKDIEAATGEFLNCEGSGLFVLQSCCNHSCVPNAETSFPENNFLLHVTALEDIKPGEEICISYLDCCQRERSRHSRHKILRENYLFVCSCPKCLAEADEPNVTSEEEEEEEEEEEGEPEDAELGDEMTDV

Test [2] deals with T2, DIRAS1-DIRAS family, GTP-binding RAS-like 1 (DIRAS1) (human, UniProt O95057 1-198, limits assumed).
T2 sequence (looked up): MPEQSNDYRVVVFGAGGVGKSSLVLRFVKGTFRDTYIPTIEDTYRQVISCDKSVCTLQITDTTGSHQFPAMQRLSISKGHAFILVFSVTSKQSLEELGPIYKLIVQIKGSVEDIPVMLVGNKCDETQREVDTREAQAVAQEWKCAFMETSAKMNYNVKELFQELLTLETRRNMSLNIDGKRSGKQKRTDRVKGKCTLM

Test [3] has as its target T3, CRYZL1-crystallin, zeta (quinone reductase)-like 1 (CRYZL1) (human, UniProt O95825 1-349, limits assumed).
T3 sequence (looked up): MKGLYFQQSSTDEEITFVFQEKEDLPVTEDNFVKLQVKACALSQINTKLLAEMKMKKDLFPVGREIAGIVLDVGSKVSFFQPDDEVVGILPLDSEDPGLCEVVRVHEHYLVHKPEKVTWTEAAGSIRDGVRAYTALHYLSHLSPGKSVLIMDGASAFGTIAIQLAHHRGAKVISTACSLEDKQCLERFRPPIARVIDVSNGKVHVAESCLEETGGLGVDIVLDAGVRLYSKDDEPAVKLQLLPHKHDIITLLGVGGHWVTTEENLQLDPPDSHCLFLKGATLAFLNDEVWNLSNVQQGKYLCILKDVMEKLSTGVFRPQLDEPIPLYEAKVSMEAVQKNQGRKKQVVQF

Test [4] has as its target T4, SH3YL1-SH3 domain containing, Ysc84-like 1 (S. cerevisiae), mRNA (cDNA clone MGC:12275 IMAGE:3996120), … (human, UniProt Q96HL8 1-342, limits assumed).
T4 sequence (looked up): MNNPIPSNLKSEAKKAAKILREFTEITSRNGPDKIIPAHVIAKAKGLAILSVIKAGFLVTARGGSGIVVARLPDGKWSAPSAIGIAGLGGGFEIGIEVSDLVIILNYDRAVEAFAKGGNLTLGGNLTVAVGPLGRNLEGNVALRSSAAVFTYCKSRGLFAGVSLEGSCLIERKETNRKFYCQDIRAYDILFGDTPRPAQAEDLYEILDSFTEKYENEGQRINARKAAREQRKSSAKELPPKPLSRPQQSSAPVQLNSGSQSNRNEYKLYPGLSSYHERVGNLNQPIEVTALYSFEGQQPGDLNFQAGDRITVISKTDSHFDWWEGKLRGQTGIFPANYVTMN

Test [5] deals with T5, KCTD7-potassium channel tetramerisation domain containing 7 (KCTD7) (human, UniProt Q96MP8 1-289, limits assumed).
T5 sequence (looked up): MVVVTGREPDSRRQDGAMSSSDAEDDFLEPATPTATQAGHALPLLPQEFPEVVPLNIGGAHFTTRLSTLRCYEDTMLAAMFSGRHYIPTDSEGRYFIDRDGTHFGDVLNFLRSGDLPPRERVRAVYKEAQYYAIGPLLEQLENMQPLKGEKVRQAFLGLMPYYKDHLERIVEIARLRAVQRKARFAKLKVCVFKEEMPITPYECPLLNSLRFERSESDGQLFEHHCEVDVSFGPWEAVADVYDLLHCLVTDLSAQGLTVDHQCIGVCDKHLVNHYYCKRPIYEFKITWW

In a further test the target is SCGB2A2-Mammaglobin-A (human, UniProt Q13296 19-93, limits assumed).
Test [6] has as its target T6, MAGEH1-melanoma antigen family H, 1 (MAGEH1) (human, UniProt Q9H213 1-219).
T6 sequence (looked up): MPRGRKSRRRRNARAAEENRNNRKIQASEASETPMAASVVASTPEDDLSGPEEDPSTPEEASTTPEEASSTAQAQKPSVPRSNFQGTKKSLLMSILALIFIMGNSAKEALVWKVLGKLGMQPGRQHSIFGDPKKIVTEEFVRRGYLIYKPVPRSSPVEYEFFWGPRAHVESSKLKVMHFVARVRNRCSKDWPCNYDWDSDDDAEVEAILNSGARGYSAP

The target in test [7] is T7, SMAP1-stromal membrane-associated protein 1 (SMAP1) (human, UniProt Q8IYB5 1-467, limits assumed).
T7 sequence (looked up): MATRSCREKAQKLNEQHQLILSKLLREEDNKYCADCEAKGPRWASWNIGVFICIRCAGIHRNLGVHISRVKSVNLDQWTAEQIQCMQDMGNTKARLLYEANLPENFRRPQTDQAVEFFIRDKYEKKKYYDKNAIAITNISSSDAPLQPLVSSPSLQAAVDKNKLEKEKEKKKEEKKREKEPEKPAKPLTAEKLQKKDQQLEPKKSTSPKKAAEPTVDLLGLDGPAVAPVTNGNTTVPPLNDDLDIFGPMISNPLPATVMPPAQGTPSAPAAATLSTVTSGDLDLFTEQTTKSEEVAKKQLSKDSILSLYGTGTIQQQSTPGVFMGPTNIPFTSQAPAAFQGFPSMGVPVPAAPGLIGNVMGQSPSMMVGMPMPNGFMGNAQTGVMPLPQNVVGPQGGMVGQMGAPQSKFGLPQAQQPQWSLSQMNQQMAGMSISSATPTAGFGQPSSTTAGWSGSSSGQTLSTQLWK

Sequence of SCGB2A2-Mammaglobin-A (Q13296 19-93 limits assumed): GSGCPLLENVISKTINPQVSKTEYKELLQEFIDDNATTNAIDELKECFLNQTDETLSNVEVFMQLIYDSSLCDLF

B1: 3× Flag-3×MBT (designed binder)
chain: EEWSSSQPATGEKKECWSWESYLEEQKAITAPVSLFQDSQAVTHNKNGFKLGMKLEGIDPQHPSMYFILTVAEVCGYRLRLHFDGYSECHDFWVNANSPDIHPAGWFEKTGHKLQPPKGYKEEEFSWSQYLRSTRAQAAPKHLFVSQSHSPPPLGFQVGMKLEAVDRMNPSLVCVASVTDVVDSRFLVHFDNWDDTYDYWCDPSSPYIHPVGWCQKQGKPLTPPQDYPDPDNFCWEKYLEETGASAVPTWAFKVRPPHSFLVNMKLEAVDRRNPALIRVASVEDVEDHRIKIHFDGWSHGYDFWIDADHPDIHPAGWCSKTGHPLQPPLGPREPSSASPGG
notes: also called Flag-tagged 3×MBT; 3xFlag-3xMBT; not shown: made by PreScission cleavage of GST-3× Flag-3×MBT
Turning to B1, the “GST Average SNR” value in test [1] was 1.16; in test [2], 0.988; in test [3], -1.42; in test [4], 0.26; in test [5] it was 1.09; with SCGB2A2-Mammaglobin-A it was 0.983. In addition, the “GST Average SNR” value is 1.11 in test [6] and 1.37 in test [7].
